Values of other authors, collected in PMC3433420.
Read-outs that look alike come from different tables or passages of the source.

What was measured:
Conditions in all cases: cited from earlier work
SLA (Homo sapiens) [1] = target: SLA (Homo sapiens) (UniProt Q13239)
CRK (Homo sapiens) = CRK (Homo sapiens) (UniProt P46108)
CRKL (Homo sapiens) = CRKL (Homo sapiens) (UniProt P46109)
NCK1 (Homo sapiens) = NCK1 (Homo sapiens) (UniProt P16333)
ABL2 (Homo sapiens) = ABL2 (Homo sapiens) (UniProt P42684)
ABL2 (Homo sapiens), sequence (P42684 168-268): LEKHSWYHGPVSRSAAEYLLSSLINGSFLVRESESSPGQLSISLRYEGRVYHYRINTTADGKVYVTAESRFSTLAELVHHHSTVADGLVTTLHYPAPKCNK

PIK3R2-N (Homo sapiens) [2] = target: PIK3R2-N (Homo sapiens) (UniProt O00459)
PIK3R2-N (Homo sapiens), sequence (O00459 325-721): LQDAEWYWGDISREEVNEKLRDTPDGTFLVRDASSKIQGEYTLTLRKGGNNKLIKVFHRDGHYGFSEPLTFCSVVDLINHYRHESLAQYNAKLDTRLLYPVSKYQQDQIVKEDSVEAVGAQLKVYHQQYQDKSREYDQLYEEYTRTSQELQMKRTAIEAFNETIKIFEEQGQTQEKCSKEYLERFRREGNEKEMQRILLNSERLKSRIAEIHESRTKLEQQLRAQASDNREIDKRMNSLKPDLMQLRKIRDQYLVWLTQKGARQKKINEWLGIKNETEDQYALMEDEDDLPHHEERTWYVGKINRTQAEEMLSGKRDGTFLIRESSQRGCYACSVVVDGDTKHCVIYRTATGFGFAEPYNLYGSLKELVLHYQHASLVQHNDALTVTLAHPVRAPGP

SHB (Homo sapiens) = SHB (Homo sapiens) (UniProt Q15464)
SHB (Homo sapiens), sequence (Q15464 405-509): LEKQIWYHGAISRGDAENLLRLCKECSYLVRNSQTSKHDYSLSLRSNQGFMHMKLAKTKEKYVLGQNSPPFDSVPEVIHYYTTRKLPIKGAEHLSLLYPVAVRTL

PIK3R2-NC (Homo sapiens) = PIK3R2-NC (Homo sapiens) (UniProt O00459)
PIK3R2-NC (Homo sapiens), sequence (O00459 325-721): as the sequence (O00459 325-721) above

SYK-NC (Homo sapiens) = SYK-NC (Homo sapiens) (UniProt P43405)
BLK (Homo sapiens) = BLK (Homo sapiens) (UniProt P51451)
BLK (Homo sapiens), sequence (P51451 119-225): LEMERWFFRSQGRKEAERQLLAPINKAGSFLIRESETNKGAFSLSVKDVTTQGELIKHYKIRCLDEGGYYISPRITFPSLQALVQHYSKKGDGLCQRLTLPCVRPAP

SHC2-PTB (Homo sapiens) = SHC2-PTB (Homo sapiens) (UniProt P98077)
SHC2-PTB (Homo sapiens), sequence (P98077 482-582): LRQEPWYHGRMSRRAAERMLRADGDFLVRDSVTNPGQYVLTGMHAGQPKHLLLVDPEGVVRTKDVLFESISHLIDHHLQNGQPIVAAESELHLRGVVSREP

GRB7 (Homo sapiens) = GRB7 (Homo sapiens) (UniProt Q14451)
GRB7 (Homo sapiens), sequence (Q14451 426-532): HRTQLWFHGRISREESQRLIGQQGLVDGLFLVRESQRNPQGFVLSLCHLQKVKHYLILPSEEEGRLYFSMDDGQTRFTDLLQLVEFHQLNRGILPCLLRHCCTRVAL

SLA (Homo sapiens) [3] = target: SLA (Homo sapiens) (UniProt Q13239); remark: listed apart in the source
PTPN6-C (Homo sapiens) [4] = target: PTPN6-C (Homo sapiens) (UniProt P29350)
PTPN6-C (Homo sapiens), sequence (P29350 1-218): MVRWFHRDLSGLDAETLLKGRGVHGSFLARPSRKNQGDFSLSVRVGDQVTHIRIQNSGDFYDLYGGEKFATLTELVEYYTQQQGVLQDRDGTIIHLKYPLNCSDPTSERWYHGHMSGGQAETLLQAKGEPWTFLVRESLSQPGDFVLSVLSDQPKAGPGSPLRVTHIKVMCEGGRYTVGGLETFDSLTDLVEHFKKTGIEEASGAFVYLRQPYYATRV

ITK (Homo sapiens) [5] = target: ITK (Homo sapiens) (UniProt Q08881)
ITK (Homo sapiens), sequence (Q08881 234-343): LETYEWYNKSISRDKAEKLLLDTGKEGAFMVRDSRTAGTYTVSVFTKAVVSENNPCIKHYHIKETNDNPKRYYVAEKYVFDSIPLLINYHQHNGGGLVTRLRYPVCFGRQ

PIK3R2-N (Homo sapiens) [6] = target: PIK3R2-N (Homo sapiens) (UniProt O00459); remark: listed apart in the source
VAV3 (Homo sapiens) = VAV3 (Homo sapiens) (UniProt Q9UKW4)
VAV3 (Homo sapiens), sequence (Q9UKW4 667-771): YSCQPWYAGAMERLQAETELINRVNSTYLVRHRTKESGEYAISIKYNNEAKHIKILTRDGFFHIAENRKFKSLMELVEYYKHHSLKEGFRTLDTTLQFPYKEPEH

SRC (Homo sapiens) = SRC (Homo sapiens) (UniProt P12931)
ITK (Homo sapiens) [7] = target: ITK (Homo sapiens) (UniProt Q08881); remark: listed apart in the source
PLCG1-N (Homo sapiens) = PLCG1-N (Homo sapiens) (UniProt P19174)
PLCG1-N (Homo sapiens), sequence (P19174 545-761): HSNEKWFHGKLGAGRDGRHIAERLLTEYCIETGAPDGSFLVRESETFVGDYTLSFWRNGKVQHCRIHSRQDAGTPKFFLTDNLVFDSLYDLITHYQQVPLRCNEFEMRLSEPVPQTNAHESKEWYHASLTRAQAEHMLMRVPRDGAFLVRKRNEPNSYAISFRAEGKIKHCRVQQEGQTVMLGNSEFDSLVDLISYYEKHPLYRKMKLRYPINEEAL

PTPN6-C (Homo sapiens) [8] = target: PTPN6-C (Homo sapiens) (UniProt P29350); remark: listed apart in the source
VAV1 (Homo sapiens) = VAV1 (Homo sapiens) (UniProt P15498)
VAV1 (Homo sapiens), sequence (P15498 666-770): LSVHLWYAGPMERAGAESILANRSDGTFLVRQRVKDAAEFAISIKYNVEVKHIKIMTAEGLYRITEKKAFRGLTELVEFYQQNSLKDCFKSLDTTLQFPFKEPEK

PLCG1-NC (Homo sapiens) = PLCG1-NC (Homo sapiens) (UniProt P19174)
PLCG1-NC (Homo sapiens), sequence (P19174 545-761): as the sequence (P19174 545-761) above

YES1 (Homo sapiens) = YES1 (Homo sapiens) (UniProt P07947)
YES1 (Homo sapiens), sequence (P07947 153-260): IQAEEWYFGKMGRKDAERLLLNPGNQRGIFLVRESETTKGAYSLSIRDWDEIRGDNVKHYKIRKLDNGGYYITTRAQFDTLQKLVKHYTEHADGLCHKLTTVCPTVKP

ITK (Homo sapiens) [9] = target: ITK (Homo sapiens) (UniProt Q08881); remark: listed apart in the source
TNS3 (Homo sapiens) = TNS3 (Homo sapiens) (UniProt Q68CZ2)
TNS3 (Homo sapiens), sequence (Q68CZ2 1167-1287): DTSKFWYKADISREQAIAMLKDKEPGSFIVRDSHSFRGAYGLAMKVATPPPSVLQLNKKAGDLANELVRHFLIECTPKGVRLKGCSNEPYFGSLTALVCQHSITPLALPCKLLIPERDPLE

RASA1-N (Homo sapiens) = RASA1-N (Homo sapiens) (UniProt P20936)
RASA1-N (Homo sapiens), sequence (P20936 176-446): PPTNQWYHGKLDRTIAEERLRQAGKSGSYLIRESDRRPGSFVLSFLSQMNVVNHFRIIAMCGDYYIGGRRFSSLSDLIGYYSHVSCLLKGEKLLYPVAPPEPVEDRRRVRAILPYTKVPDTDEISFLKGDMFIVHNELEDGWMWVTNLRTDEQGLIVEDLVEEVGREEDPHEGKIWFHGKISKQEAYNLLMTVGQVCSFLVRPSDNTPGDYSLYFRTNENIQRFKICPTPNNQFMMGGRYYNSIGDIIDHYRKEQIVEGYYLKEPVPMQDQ

PIK3R2-N (Homo sapiens) [10] = target: PIK3R2-N (Homo sapiens) (UniProt O00459); remark: listed apart in the source
HCK (Homo sapiens) = HCK (Homo sapiens) (UniProt P08631)
HCK (Homo sapiens), sequence (P08631 139-246): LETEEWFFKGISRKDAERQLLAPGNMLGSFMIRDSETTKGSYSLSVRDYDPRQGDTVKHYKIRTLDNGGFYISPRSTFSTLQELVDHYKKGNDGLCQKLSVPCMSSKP

PIK3R3-C (Homo sapiens) = PIK3R3-C (Homo sapiens) (UniProt Q92569)
SLA (Homo sapiens) [11] = target: SLA (Homo sapiens) (UniProt Q13239); remark: listed apart in the source

SLA (Homo sapiens), sequence (Q13239 79-180): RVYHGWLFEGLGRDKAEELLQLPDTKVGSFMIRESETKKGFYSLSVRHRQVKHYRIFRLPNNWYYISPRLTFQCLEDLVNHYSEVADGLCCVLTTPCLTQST
CRK (Homo sapiens), sequence (P46108 8-123): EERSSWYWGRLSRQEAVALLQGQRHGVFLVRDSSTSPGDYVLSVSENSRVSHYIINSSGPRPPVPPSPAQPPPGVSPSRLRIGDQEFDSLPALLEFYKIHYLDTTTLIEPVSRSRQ
CRKL (Homo sapiens), sequence (P46109 9-107): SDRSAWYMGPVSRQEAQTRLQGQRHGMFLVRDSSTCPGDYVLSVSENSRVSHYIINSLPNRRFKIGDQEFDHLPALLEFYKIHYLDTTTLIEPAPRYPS

## …pYLIPQQGFd
SLA (Homo sapiens) [1]
  apparent Kd (screen): 2000 nM
CRK (Homo sapiens)
  apparent Kd (screen): 470 nM
CRKL (Homo sapiens)
  apparent Kd (screen): 998 nM
NCK1 (Homo sapiens)
  apparent Kd (screen): 1000 nM
ABL2 (Homo sapiens)
  apparent Kd (screen): 282 nM
PIK3R2-N (Homo sapiens) [2]
  apparent Kd (screen): 424 nM
SHB (Homo sapiens)
  apparent Kd (screen): 1990 nM
PIK3R2-NC (Homo sapiens)
  apparent Kd (screen): 352 nM

## …pYLVPQQGF
SYK-NC (Homo sapiens)
  apparent Kd (screen): 372 nM
BLK (Homo sapiens)
  apparent Kd (screen): 2000 nM
SHC2-PTB (Homo sapiens)
  apparent Kd (screen): 2000 nM
GRB7 (Homo sapiens)
  apparent Kd (screen): 1800 nM
SLA (Homo sapiens) [3]
  apparent Kd (screen): 2000 nM
PTPN6-C (Homo sapiens) [4]
  apparent Kd (screen): 2000 nM
ITK (Homo sapiens) [5]
  apparent Kd (screen): 445 nM
PIK3R2-N (Homo sapiens) [6]
  apparent Kd (screen): 1950 nM

## …pYWDQDPPE
VAV3 (Homo sapiens)
  apparent Kd (screen): 1120 nM
SRC (Homo sapiens)
  apparent Kd (screen): 196 nM
ITK (Homo sapiens) [7]
  apparent Kd (screen): 2000 nM
PLCG1-N (Homo sapiens)
  apparent Kd (screen): 2000 nM
PTPN6-C (Homo sapiens) [8]
  apparent Kd (screen): 2000 nM
VAV1 (Homo sapiens)
  apparent Kd (screen): 2000 nM
PLCG1-NC (Homo sapiens)
  apparent Kd (screen): 1780 nM
YES1 (Homo sapiens)
  apparent Kd (screen): 219 nM
ITK (Homo sapiens) [9]
  apparent Kd (screen): 224 nM
TNS3 (Homo sapiens)
  apparent Kd (screen): 1290 nM

## …pYEEMRAFQ
RASA1-N (Homo sapiens)
  apparent Kd (screen): 1350 nM
PIK3R2-N (Homo sapiens) [10]
  apparent Kd (screen): 49 nM
HCK (Homo sapiens)
  apparent Kd (screen): 499 nM
PIK3R3-C (Homo sapiens)
  apparent Kd (screen): 12 nM
SLA (Homo sapiens) [11]
  apparent Kd (screen): 2000 nM
